According to paper doi:10.1101/2020.09.28.317578:
Several values for one entry are separate records, joined by “and”; a condition that tells them apart may be missing. Identical values can stand only once.

Biological target: AcrIIA22 (wild type, thrombin-cleaved) (Clostridial genus CAG-217 (human gut metagenome; taxonomy inferred by the paper))
Assay: SEC

- stoichiometry N: 4 and 5
Substance: AcrIIA22 (wild type, thrombin-cleaved) (natural protein)
